Data taken from paper PMC2394828 (Acta Crystallographica Section D: Biological Crystallography, 2007).
Where “and” joins values, the source holds several entries; their conditions need not be identical. Equal entries are not always repeated.

Legend:
crystal structure [1] = target: the molecule itself; assay: crystal structure
AUC + SEC = target: the molecule itself; assay: AUC + SEC
crystal structure [2] = target: the molecule itself; assay: crystal structure; remark: listed apart in the source

B1: anti-TRAP from Bacillus licheniformis (natural protein, UniProt Q65NU7 1-53, looked up)
chain: MVIATDDLETTCPNCNGSGREEPEPCPKCSGKGVILTAQGSTLLHFIKKHLNE
- stoichiometry N (crystal structure [1]): 12

B2: thioredoxin peroxidase B from human erythrocytes (enzyme, UniProt P32119 1-198, looked up)
chain: MASGNARIGKPAPDFKATAVVDGAFKEVKLSDYKGKYVVLFFYPLDFTFVCPTEIIAFSNRAEDFRKLGCEVLGVSVDSQFTHLAWINTPRKEGGLGPLNIPLLADVTRRLSEDYGVLKTDEGIAYRGLFIIDGKGVLRQITVNDLPVGRSVDEALRLVQAFQYTDEHGEVCPAGWKPGSDTIKPNVDDSKEYFSKHN
- stoichiometry N (AUC + SEC): 8 and 12
- stoichiometry N (crystal structure [2]): 10
